The results in this text go back to article PMC12078605.

The experiment addresses Shiga toxin 2a B-subunit (StxB2a) (E. coli (endogenous in STEC/EHEC strains TS18/08, LB226692, HUSEC003, HUSEC004, HUSEC008, HUSEC018)). Nature of the experiment: native gel or EMSA. On the technique in general: Mobility shift assays separate free from complexed probe on a gel.

“And” between values parts separate entries of the source, which are not always exact repeats. Equal values may be shown once.

Turning to “Shiga toxin 2a B-subunit (StxB2a) (natural protein)”, the stoichiometry N (usually a count of units in the complex or per binding partner) is 2 and 3 and 5.
